Experimental data published in PMC6113293, “Phosphorylation of ULK1 affects autophagosome fusion and links chaperone-mediated autophagy to macroautophagy” (Nature Communications, 2018).

T1: GFP-STX17, P56962
T1 chain: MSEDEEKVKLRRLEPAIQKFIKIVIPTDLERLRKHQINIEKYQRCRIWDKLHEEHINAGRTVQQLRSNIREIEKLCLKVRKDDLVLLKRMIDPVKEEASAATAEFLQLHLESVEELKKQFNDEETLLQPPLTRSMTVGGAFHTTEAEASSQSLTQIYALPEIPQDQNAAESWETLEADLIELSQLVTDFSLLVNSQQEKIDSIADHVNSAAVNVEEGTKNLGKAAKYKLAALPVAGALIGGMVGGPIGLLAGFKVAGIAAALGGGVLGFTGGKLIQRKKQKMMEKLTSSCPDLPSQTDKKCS

T2: GST-ULK1 279–525 (from bacteria) (UniProt O75385 279-525)
T2 construct: in the vector pGEX-4t-2; source: E. coli BL21 codon plus, purified
T2 sequence (looked up): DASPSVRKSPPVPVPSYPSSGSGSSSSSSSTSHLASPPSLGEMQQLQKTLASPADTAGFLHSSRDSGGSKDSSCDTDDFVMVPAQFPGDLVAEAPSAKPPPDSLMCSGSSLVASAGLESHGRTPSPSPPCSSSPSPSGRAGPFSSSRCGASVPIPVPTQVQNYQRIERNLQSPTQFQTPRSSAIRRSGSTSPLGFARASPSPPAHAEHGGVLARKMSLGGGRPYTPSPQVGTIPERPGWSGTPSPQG


Tests used:
[1] = target: T1, GFP-STX17, P56962; experiment: proximity ligation; GFP-STX17 co-transfected with Myc-ULK1 variants or Myc vector into HeLa; anti-Myc and anti-GFP antibodies; with or without serum starvation; conditions: remark: other sources report otherwise
[2] = target: T2, GST-ULK1 279–525 (from bacteria); experiment: pull-down; GST-ULK1 279–525 and His-STX17 157–275 purified from bacteria, incubated in IP lysis buffer with glutathione beads for 4 h at 4 °C; western blot with His antibody; conditions: both partners purified

Binder | fold increase of the PLA signal with serum starvation over no starvation [1] [fold] | binding result [2]
Myc-ULK1 WT, O75385 1-1050 (enzyme) MEPGRGGTETVGKFEFSRKDLIGHGAFAVVFKGRHREKHDLEVAVKCINKKNLAKSQTLLGKEIKILKELKHENIVALYDFQEMANSVYLVMEYCNGGDLADYLHAMRTLSEDTIRLFLQQIAGAMRLLHSKGIIHRDLKPQNILLSNPAGRRANPNSIRVKIADFGFARYLQSNMMAATLCGSPMYMAPEVIMSQHYDGKADLWSIGTIVYQCLTGKAPFQASSPQDLRLFYEKNKTLVPTIPRETSAPLRQLLLALLQRNHKDRMDFDEFFHHPFLDASPSVRKSPPVPVPSYPSSGSGSSSSSSSTSHLASPPSLGEMQQLQKTLASPADTAGFLHSSRDSGGSKDSSCDTDDFVMVPAQFPGDLVAEAPSAKPPPDSLMCSGSSLVASAGLESHGRTPSPSPPCSSSPSPSGRAGPFSSSRCGASVPIPVPTQVQNYQRIERNLQSPTQFQTPRSSAIRRSGSTSPLGFARASPSPPAHAEHGGVLARKMSLGGGRPYTPSPQVGTIPERPGWSGTPSPQGAEMRGGRSPRPGSSAPEHSPRTSGLGCRLHSAPNLSDLHVVRPKLPKPPTDPLGAVFSPPQASPPQPSHGLQSCRNLRGSPKLPDFLQRNPLPPILGSPTKAVPSFDFPKTPSSQNLLALLARQGVVMTPPRNRTLPDLSEVGPFHGQPLGPGLRPGEDPKGPFGRSFSTSRLTDLLLKAAFGTQAPDPGSTESLQEKPMEIAPSAGFGGSLHPGARAGGTSSPSPVVFTVGSPPSGSTPPQGPRTRMFSAGPTGSASSSARHLVPGPCSEAPAPELPAPGHGCSFADPITANLEGAVTFEAPDLPEETLMEQEHTEILRGLRFTLLFVQHVLEIAALKGSASEAAGGPEYQLQESVVADQISLLSREWGFAEQLVLYLKVAELLSSGLQSAIDQIRAGKLCLSSTVKQVVRRLNELYKASVVSCQGLSLRLQRFFLDKQRLLDRIHSITAERLIFSHAVQMVQSAALDEMFQHREGCVPRYHKALLLLEGLQHMLSDQADIENVTKCKLCIERRLSALLTGICA | 2.5 | –
His-STX17 157–275 (domain or fragment, UniProt P56962 157-275, looked up, in the vector pET-26b(+); source: E. coli BL21 codon plus, purified; not shown: His6, C-terminal, kept) YALPEIPQDQNAAESWETLEADLIELSQLVTDFSLLVNSQQEKIDSIADHVNSAAVNVEEGTKNLGKAAKYKLAALPVAGALIGGMVGGPIGLLAGFKVAGIAAALGGGVLGFTGGKLI | – | binds
